Kd data for 6 molecules are collected here from publication PMC9757036.

The chains are these.
B1: T8:P9 (D11) (dsDNA)
DNA 1: AATACATAAACGCTCCAGGCAAT
DNA 2: GCCTGGAGCGC
modifications: primer 3' ddC
B2: T6:P12 (R8-D3) (mixed)
DNA: AATACATAAGCGCTCCAGGCAAT
RNA: GCCUGGAGCGC
modifications: primer nt 1-8 RNA, nt 9-11 DNA, 3' ddC
B3: T8:P12 (R8-D3) (mixed)
DNA: AATACATAAACGCTCCAGGCAAT
RNA: GCCUGGAGCGC
modifications: primer nt 1-8 RNA, nt 9-11 DNA, 3' ddC
B4: T7:P12 (R8-D3) (mixed)
DNA: AATACATAATCGCTCCAGGCAAT
RNA: GCCUGGAGCGC
modifications: primer nt 1-8 RNA, nt 9-11 DNA, 3' ddC
B5: T6:P9 (D11) (dsDNA)
DNA 1: AATACATAAGCGCTCCAGGCAAT
DNA 2: GCCTGGAGCGC
modifications: primer 3' ddC
B6: T7:P9 (D11) (dsDNA)
DNA 1: AATACATAATCGCTCCAGGCAAT
DNA 2: GCCTGGAGCGC
modifications: primer 3' ddC

Chain of DNA polymerase alpha catalytic domain (hPolα, hPolαCD) (P09884 335-1257): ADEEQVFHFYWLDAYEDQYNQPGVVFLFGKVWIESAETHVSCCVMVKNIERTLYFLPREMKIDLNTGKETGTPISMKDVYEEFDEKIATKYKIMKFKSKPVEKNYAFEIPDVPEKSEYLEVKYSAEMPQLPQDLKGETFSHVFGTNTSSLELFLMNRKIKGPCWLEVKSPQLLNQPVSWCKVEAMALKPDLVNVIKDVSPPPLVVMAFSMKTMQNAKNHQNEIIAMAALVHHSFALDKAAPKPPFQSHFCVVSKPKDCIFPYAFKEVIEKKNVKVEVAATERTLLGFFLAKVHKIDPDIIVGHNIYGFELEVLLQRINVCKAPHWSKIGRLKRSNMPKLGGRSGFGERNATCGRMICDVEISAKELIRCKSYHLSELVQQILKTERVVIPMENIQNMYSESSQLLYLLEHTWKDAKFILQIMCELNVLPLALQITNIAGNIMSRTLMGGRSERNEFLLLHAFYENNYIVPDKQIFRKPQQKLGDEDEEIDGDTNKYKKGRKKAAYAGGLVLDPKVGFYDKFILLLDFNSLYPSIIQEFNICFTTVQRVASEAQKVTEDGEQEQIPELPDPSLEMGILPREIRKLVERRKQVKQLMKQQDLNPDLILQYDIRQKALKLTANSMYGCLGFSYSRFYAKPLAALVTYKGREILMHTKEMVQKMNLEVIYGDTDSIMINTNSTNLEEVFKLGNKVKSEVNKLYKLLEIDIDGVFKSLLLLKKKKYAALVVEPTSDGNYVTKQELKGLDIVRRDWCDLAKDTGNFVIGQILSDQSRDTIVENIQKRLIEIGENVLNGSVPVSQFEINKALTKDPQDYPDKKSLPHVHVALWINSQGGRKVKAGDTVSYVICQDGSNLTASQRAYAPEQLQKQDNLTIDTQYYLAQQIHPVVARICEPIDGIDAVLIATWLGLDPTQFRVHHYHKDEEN

This data set has as its target DNA polymerase alpha catalytic domain (hPolα, hPolαCD) (human, UniProt P09884 335-1257). The data set can be described thus: BLI.
With B1, the dissociation constant Kd worked out at 1880 ± 33 nM. In turn, B2 yielded a Kd of 11.3 ± 0.69 nM.

In turn, B3 returned a Kd of 730 ± 51 nM. As to B4, the dissociation constant Kd was 198 ± 9.2 nM.

B5 displayed an equilibrium dissociation constant (Kd) of 146 ± 17 nM. In the case of B6 it was 1130 ± 94 nM.
